Measurements from article PMC10710050, “HCMV-secreted glycoprotein gpUL4 inhibits TRAIL-mediated apoptosis and NK cell activation” (Proceedings of the National Academy of Sciences of the …, 2023).

Biological target: T1, TRAIL (Recombinant Human TRAIL, BioLegend) (human, UniProt P50591 39-281)
T1 construct: TRAIL (TNFSF10), human, recombinant soluble protein from BioLegend; The catalogue number is printed for the ELISA; SPR names BioLegend only; also called TNFSF10; soluble TRAIL; source: bought: BioLegend (cat.no 752902)
T1 sequence (P50591 39-281): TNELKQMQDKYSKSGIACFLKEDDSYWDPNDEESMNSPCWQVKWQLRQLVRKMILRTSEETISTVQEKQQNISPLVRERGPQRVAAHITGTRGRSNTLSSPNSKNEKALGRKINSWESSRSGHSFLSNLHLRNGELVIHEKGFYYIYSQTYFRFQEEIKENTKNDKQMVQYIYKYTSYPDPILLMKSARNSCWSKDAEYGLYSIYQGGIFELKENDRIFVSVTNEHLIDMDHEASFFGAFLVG
Test: SPR; Biacore T100; gpUL4-V5 amine-coupled to a CM5 chip (5000RU), control surface soluble UL141 subtracted; TRAIL or TNFα flowed over (100 nM; kinetics from 3.125, 6.25, 12.5, 25 and 50 nM TRAIL, 1:1 binding fit); 10 mM HEPES, 150 mM NaCl, 0.005% TWEEN-20, pH 7.4
Settings: both partners purified

B1: gpUL4-V5 (HCMV strain Merlin UL4 gene product with C-terminal V5/avitag/6his epitope tag) (natural protein)
chain: FCIFVSCSISTTTAPVEWKSPDRQIPMNITCANYSGTVNGNVTFRGLQNKTEDFLHWLLGWGHKSICSFFPKLQGNKEQHYMYGITNLTYNCTYDRLTLLNLTTENSGKYYFKREDVNSTFYYSCYNLTVT
modifications: N-linked and O-linked glycosylation on the secreted form (eight consensus N-linked sites; positions not given)
notes: the secreted form from the supernatant was used; Secreted glycoprotein; The tag is V5/avitag/6his in this order at the C-terminus; also called UL4 protein; not shown: V5, C-terminal, kept
Work on B1 yielded a Kd of 0.234 nM, a koff of 0.0002 s⁻¹ and a kon of 867000 M⁻¹ s⁻¹.
